Source: PMC3897919, “ERAD and protein import defects in a sec61 mutant lacking ER-lumenal loop 7” (BMC Cell Biology, 2013)

Target: T1, Sec61∆L7p (S. cerevisiae, UniProt P32915 1-480, amino acids 305–371 of wildtype Sec61p had been replaced by two amino acids …)
T1 construct: Sec61p, S. cerevisiae, lacking ER-lumenal loop 7 and the lumenal ends of TMDs 7 and 8; also called Sec61ΔL7p; Sec∆L7p; source: yeast KRY461 with sec61ΔL7pRS315 as sole copy of SEC61, in microsomes; solubilized in Triton-X100 or digitonin, or total protein reconstituted into proteoliposomes
T1 sequence (looked up): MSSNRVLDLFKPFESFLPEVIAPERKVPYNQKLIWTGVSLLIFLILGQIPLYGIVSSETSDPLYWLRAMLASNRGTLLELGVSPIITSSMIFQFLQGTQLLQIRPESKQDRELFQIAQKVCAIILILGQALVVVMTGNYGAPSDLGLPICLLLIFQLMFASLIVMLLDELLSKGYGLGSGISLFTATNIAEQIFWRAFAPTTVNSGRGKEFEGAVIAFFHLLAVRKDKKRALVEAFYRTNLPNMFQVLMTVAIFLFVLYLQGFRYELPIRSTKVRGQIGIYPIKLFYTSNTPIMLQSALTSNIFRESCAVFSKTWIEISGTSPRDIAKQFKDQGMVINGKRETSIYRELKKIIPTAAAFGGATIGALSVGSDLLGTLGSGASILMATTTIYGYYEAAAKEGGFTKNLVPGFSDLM
Test: cross-linking; intact microsomes in B88, pH 7.9, treated with DSS for 20 min at 20°C, quenched with ammonium acetate; SDS-PAGE and immunoblotting with anti-Sec61p or anti-Sss1p antibodies
Settings: partners not purified

B1: Sss1p (natural protein, UniProt P35179 1-80, looked up)
chain: MARASEKGEEKKQSNNQVEKLVEAPVEFVREGTQFLAKCKKPDLKEYTKIVKAVGIGFIAVGIIGYAIKLIHIPIRYVIV
notes: Sss1p, small subunit of the trimeric Sec61 complex, yeast; source: endogenous, yeast microsomes
fold weaker crosslink than in wildtype membranes: ≥ 5 fold
